{"source": "patent US20080095778A1", "about": "“Treatment Of Fungal Infections” (priority 2004, published 2008)", "molecules": {"B1": {"name": "Mycograb: antibody specific for a fungal hsp90 stress protein epitope (SEQ ID NO: 1), comprising the sequence of SEQ ID NO: 3, expressed in E. coli (protein)", "scFv": "HMAEVQLVESGAEVKKPGESLRISCKGSGCIISSYWISWVRQMPGKGLEWMGKIDPGDSYINYSPSFQGHVTISADKSINTAYLQWNSLKASDTAMYYCARGGRDFGDSFDYWGQGTLVTVSSGGGGSGGGGSGGGGSDVVMTQSPSFLSAFVGDRITITCRASSGISRYLAWYQQAPGKAPKLLIYAASTLQTGVPSRFSGSGSGTEFTLTINSLQPEDFATYYCQHLNSYPLTFGGGTKVDIKRAA", "modifications": "Synthetically generated peptide"}}, "key": {"Aspergillus species": {"system": "Aspergillus species", "assay": "Antifungal activity with Mycograb antibody, summary over the Aspergillus species examined", "type": "cell-based", "experimental": "(§1) An inoculum suspension was prepared in buffered RPMI with glutamine medium by probing colonies from a 7 day old Sabouraud plate. The suspension was adjusted to 0.09-0.11 (80% to 82% transmittance) for Aspergillus species, 0.15-0.17 (68% to 70% transmittance). The inoculum was diluted a further 1:2 when added to the antifungal agents in the assay (final inoculum (0.4×10^4 to 0.5×10^4). For AMB and Mycograb®, either alone or in combination, the endpoint was determined as the concentration to produce no growth (MIC-0). Microtitre plates were incubated at 37° C. without agitation for 48 hours for Aspergillus species. For caspofungin, voriconazole and itraconazole, either alone or in combination with Mycograb® antibody, the MIC endpoint was determined as the concentration resulting in a prominent decrease in turbidity (≧50% growth inhibition, MIC-2) compared to the growth control (Keele et al. 2001; Espinel-Ingroff 2003). The final inhibitory concentration (FIC) was calculated for each drug by dividing the MIC in the presence of the second drug by the MIC in its absence. For each combination, two fractions were produced which were summated to produce the fractional final inhibitory concentration. Synergy was defined by value of ≦0.5, indifference was defined by a value of >0.5 to <4.0, and antagonism was defined by a value of ≧4.0 (Matthews et al., 2003)."}, "Candida strains": {"system": "Candida strains", "details": "prior finding, WO 01/76627; cited from earlier work"}, "A. niger": {"system": "A. niger", "assay": "Broth microdilution (NCCLS M38-A) checkerboard assay, A. niger", "type": "cell-based", "details": "for FIC: MIC in combination divided by MIC alone", "experimental": "(§2) Stock solutions of amphotericin B (AMB, Sigma), caspofungin (Caspo), voriconazole (VOR) and itraconazole (ITZ) were prepared according to the National Committee for Clinical Laboratory Standards (M38-A) in RPMI 1640 with glutamine broth medium, buffered to pH 7.0 with […] morpholinopropanesulphonic acid (MOPS). AMB stock solutions were prepared as a 100× series in 100% dimethyl sulfoxide (DMSO) and diluted in medium to a concentration range of 0.03125 to 16 μg/ml. Caspofungin, voriconazole and itraconazole were tested at a concentration range of 0.03125 to 1024 μg/ml, and Mycograb® (NeuTec Pharma plc) at a concentration range of 0.25 to 1024 μg/ml.\n(§3) Clinical isolates of Aspergillus fumigatus (2), A. flavus (1), A. terreus (1) and A. niger (1) were obtained from the Department on Microbiology, Manchester Royal Infirmary, Manchester, UK.\nas §1"}, "A. fumigatus": {"system": "A. fumigatus", "assay": "Broth microdilution (NCCLS M38-A) checkerboard assay, A. fumigatus", "type": "cell-based, Aspergillus fumigatus", "details": "for FIC: MIC in combination divided by MIC alone", "experimental": "as §2, §3, §1"}, "A. flavus": {"system": "A. flavus", "assay": "Broth microdilution (NCCLS M38-A) checkerboard assay, A. flavus", "type": "cell-based", "details": "for FIC: MIC in combination divided by MIC alone", "experimental": "as §2, §3, §1"}, "A. fumigatus CI2": {"system": "A. fumigatus CI2", "assay": "Broth microdilution (NCCLS M38-A) checkerboard assay, A. fumigatus CI2", "type": "cell-based, Aspergillus fumigatus", "details": "for FIC: MIC in combination divided by MIC alone", "experimental": "as §2, §3, §1"}, "A. terreus": {"system": "A. terreus", "assay": "Broth microdilution (NCCLS M38-A) checkerboard assay, A. terreus", "type": "cell-based", "details": "for FIC: MIC in combination divided by MIC alone", "experimental": "as §2, §3, §1"}, "[1]": {"details": "agent alone, Table 1, no growth endpoint"}, "[2]": {"details": "agent alone, Table 2, ≧50% growth inhibition endpoint"}, "[3]": {"details": "agent alone, Table 3, ≧50% growth inhibition endpoint"}, "[4]": {"details": "agent alone, Table 4, ≧50% growth inhibition endpoint"}, "[5]": {"details": "amphotericin B and Mycograb in combination"}, "[6]": {"details": "caspofungin and Mycograb in combination"}, "[7]": {"details": "itraconazole and Mycograb in combination"}, "[8]": {"details": "voriconazole and Mycograb in combination"}}}
{"molecule": "OC(Cn1cncn1)(Cn1cncn1)c1ccc(F)cc1F", "note": "[fluconazole]", "values": [{"measurement": "Antifungal activity / surprising effect when used in combination with Mycograb antibody", "setting": "Aspergillus species; summary of Tables 1-4, agent combined with Mycograb antibody", "value": "not observed"}, {"measurement": "Synergy in combination with Mycograb antibody against Candida strains", "setting": "Candida strains", "value": "little synergy"}]}
{"molecule": "CC[C@@H]([C@H](C)O)n1ncn(-c2ccc(N3CCN(c4ccc(OC[C@@H]5CO[C@@](Cn6cncn6)(c6ccc(F)cc6F)C5)cc4)CC3)cc2)c1=O", "note": "[posaconazole]", "values": [{"measurement": "Synergy with antibody specific for Aspergillus hsp90 epitope", "setting": "Aspergillus species; preliminary results", "value": "capable of achieving similar synergistic results"}]}
{"molecule": "B1", "values": [{"measurement": "MIC-0 of each agent, Alone", "setting": "A. niger; [1]", "value": 512, "unit": "µg/mL"}, {"measurement": "MIC-2 of each agent, Alone", "setting": "A. niger; [2]", "value": 256, "unit": "µg/mL"}, {"measurement": "MIC-2 of each agent, Alone", "setting": "A. niger; [3]", "value": 16, "unit": "µg/mL"}, {"measurement": "MIC-2 of each agent, Alone", "setting": "A. niger; [4]", "value": 16, "unit": "µg/mL"}, {"measurement": "MIC-0 of each agent, Combination", "setting": "A. niger; [5]", "value": 4, "unit": "µg/mL"}, {"measurement": "FIC", "setting": "A. niger; amphotericin B and Mycograb", "value": 0.01}, {"measurement": "MIC-2 of each agent, Combination", "setting": "A. niger; [6]", "value": 0.0625, "unit": "µg/mL"}, {"measurement": "FIC", "setting": "A. niger; caspofungin and Mycograb", "value": 0.0001}, {"measurement": "MIC-2 of each agent, Combination", "setting": "A. niger; [7]", "value": 4, "unit": "µg/mL"}, {"measurement": "FIC", "setting": "A. niger; itraconazole and Mycograb", "value": 0.25}, {"measurement": "MIC-2 of each agent, Combination", "setting": "A. niger; [8]", "value": 16, "unit": "µg/mL"}, {"measurement": "FIC", "setting": "A. niger; voriconazole and Mycograb", "value": 1}, {"measurement": "MIC-0 of each agent, Alone", "setting": "A. fumigatus; [1]", "value": 512, "unit": "µg/mL"}, {"measurement": "MIC-2 of each agent, Alone", "setting": "A. fumigatus; [2]", "value": 1024, "unit": "µg/mL"}, {"measurement": "MIC-2 of each agent, Alone", "setting": "A. fumigatus; [3]", "value": 1024, "unit": "µg/mL"}, {"measurement": "MIC-2 of each agent, Alone", "setting": "A. fumigatus; [4]", "value": 1024, "unit": "µg/mL"}, {"measurement": "MIC-0 of each agent, Combination", "setting": "A. fumigatus; [5]", "value": 4, "unit": "µg/mL"}, {"measurement": "FIC", "setting": "A. fumigatus; amphotericin B and Mycograb", "value": 0.01}, {"measurement": "MIC-2 of each agent, Combination", "setting": "A. fumigatus; [6]", "value": 32, "unit": "µg/mL"}, {"measurement": "FIC", "setting": "A. fumigatus; caspofungin and Mycograb", "value": 0.062}, {"measurement": "MIC-2 of each agent, Combination", "setting": "A. fumigatus; [7]", "value": 16, "unit": "µg/mL"}, {"measurement": "FIC", "setting": "A. fumigatus; itraconazole and Mycograb", "value": 0.016}, {"measurement": "MIC-2 of each agent, Combination", "setting": "A. fumigatus; [8]", "value": 0.25, "unit": "µg/mL"}, {"measurement": "FIC", "setting": "A. fumigatus; voriconazole and Mycograb", "value": 0.0002}, {"measurement": "MIC-0 of each agent, Alone", "setting": "A. flavus; [1]", "value": 512, "unit": "µg/mL"}, {"measurement": "MIC-2 of each agent, Alone", "setting": "A. flavus; [2]", "value": 512, "unit": "µg/mL"}, {"measurement": "MIC-2 of each agent, Alone", "setting": "A. flavus; [3]", "value": 512, "unit": "µg/mL"}, {"measurement": "MIC-2 of each agent, Alone", "setting": "A. flavus; [4]", "value": 512, "unit": "µg/mL"}, {"measurement": "MIC-0 of each agent, Combination", "setting": "A. flavus; [5]", "value": 512, "unit": "µg/mL"}, {"measurement": "FIC", "setting": "A. flavus; amphotericin B and Mycograb", "value": 1}, {"measurement": "MIC-2 of each agent, Combination", "setting": "A. flavus; [6]", "value": 0.0625, "unit": "µg/mL"}, {"measurement": "FIC", "setting": "A. flavus; caspofungin and Mycograb", "value": 0.0001}, {"measurement": "MIC-2 of each agent, Combination", "setting": "A. flavus; [7]", "value": 0.25, "unit": "µg/mL"}, {"measurement": "FIC", "setting": "A. flavus; itraconazole and Mycograb", "value": 0.0005}, {"measurement": "MIC-2 of each agent, Combination", "setting": "A. flavus; [8]", "value": 0.25, "unit": "µg/mL"}, {"measurement": "FIC", "setting": "A. flavus; voriconazole and Mycograb", "value": 0.0005}, {"measurement": "MIC-0 of each agent, Alone", "setting": "A. fumigatus CI2; [1]", "value": 512, "unit": "µg/mL"}, {"measurement": "MIC-2 of each agent, Alone", "setting": "A. fumigatus CI2; [2]", "value": 1024, "unit": "µg/mL"}, {"measurement": "MIC-2 of each agent, Alone", "setting": "A. fumigatus CI2; [3]", "value": 1024, "unit": "µg/mL"}, {"measurement": "MIC-2 of each agent, Alone", "setting": "A. fumigatus CI2; [4]", "value": 1024, "unit": "µg/mL"}, {"measurement": "MIC-0 of each agent, Combination", "setting": "A. fumigatus CI2; [5]", "value": 16, "unit": "µg/mL"}, {"measurement": "FIC", "setting": "A. fumigatus CI2; amphotericin B and Mycograb", "value": 0.031}, {"measurement": "MIC-2 of each agent, Combination", "setting": "A. fumigatus CI2; [6]", "value": 16, "unit": "µg/mL"}, {"measurement": "FIC", "setting": "A. fumigatus CI2; caspofungin and Mycograb", "value": 0.062}, {"measurement": "MIC-2 of each agent, Combination", "setting": "A. fumigatus CI2; [7]", "value": 8, "unit": "µg/mL"}, {"measurement": "FIC", "setting": "A. fumigatus CI2; itraconazole and Mycograb", "value": 0.008}, {"measurement": "MIC-2 of each agent, Combination", "setting": "A. fumigatus CI2; [8]", "value": 0.25, "unit": "µg/mL"}, {"measurement": "FIC", "setting": "A. fumigatus CI2; voriconazole and Mycograb", "value": 0.0002}, {"measurement": "Growth inhibition by antibody on its own", "setting": "Aspergillus species; Mycograb antibody alone, summary of Tables 1-4", "value": "able to inhibit growth of certain Aspergillus species"}, {"measurement": "MIC-0 of each agent, Alone", "setting": "A. terreus; [1]", "value": 512, "unit": "µg/mL"}, {"measurement": "MIC-2 of each agent, Alone", "setting": "A. terreus; [2]", "value": 1024, "unit": "µg/mL"}, {"measurement": "MIC-2 of each agent, Alone", "setting": "A. terreus; [3]", "value": 1024, "unit": "µg/mL"}, {"measurement": "MIC-2 of each agent, Alone", "setting": "A. terreus; [4]", "value": 1024, "unit": "µg/mL"}, {"measurement": "MIC-0 of each agent, Combination", "setting": "A. terreus; [5]", "value": 512, "unit": "µg/mL"}, {"measurement": "FIC", "setting": "A. terreus; amphotericin B and Mycograb", "value": 1, "unit": "µg/mL"}, {"measurement": "MIC-2 of each agent, Combination", "setting": "A. terreus; [6]", "value": 32, "unit": "µg/mL"}, {"measurement": "FIC", "setting": "A. terreus; caspofungin and Mycograb", "value": 0.031, "unit": "µg/mL"}, {"measurement": "MIC-2 of each agent, Combination", "setting": "A. terreus; [7]", "value": 32, "unit": "µg/mL"}, {"measurement": "FIC", "setting": "A. terreus; itraconazole and Mycograb", "value": 0.031, "unit": "µg/mL"}, {"measurement": "MIC-2 of each agent, Combination", "setting": "A. terreus; [8]", "value": 0.25, "unit": "µg/mL"}, {"measurement": "FIC", "setting": "A. terreus; voriconazole and Mycograb", "value": 0.0002, "unit": "µg/mL"}]}
